For test [1], the target named is TL-M2e5x fusion protein (Toll-like receptor ligand sequence plus five tandem heterologous M2e domain). As to the kind of experiment: ELISA on VLPs with 14C2.
For test [2] the target is unchanged. As to the kind of experiment: ELISA on VLPs and virus with 14C2. Background: An ELISA detects its analyte on a solid surface through an enzyme-linked reagent.

As for “Influenza A virus M2 monoclonal antibody 14C2 (Abcam Inc., Cambridge, Mass.)”, the fold reactivity relative to M2WT VLP in test [1] was more than 60 fold. Moreover, the fold reactivity relative to A/Philippines/2/82 virus in test [2] was determined as 500 fold.

The record behind these values is US20150273048A1.
